Assay results from publication doi:10.1101/2021.10.11.463801.
Each block holds one binder with its values, some of them ahead of it.

Target: DLIC1[388-523] (human)
Experiment: ITC

Kd: 1000 nM | stoichiometry N (DLIC1-C molecules per RH1 dimer): 2
B1: JIP3[1-108] (domain or fragment)
chain: MMEIQMDEGGGVVVYQDDYCSGSVMSERVSGLAGSIYREFERLIHCYDEEVVKELMPLVVNVLENLDSVLSENQEHEVELELLREDNEQLLTQYEREKALRRQAEEKF

Kd: 4000 nM | stoichiometry N (DLIC1-C molecules per RH1 dimer): 2
B2: JIP4[1-103] (domain or fragment)
chain: MELEDGVVYQEEPGGSGAVMSERVSGLAGSIYREFERLIGRYDEEVVKELMPLVVAVLENLDSVFAQDQEHQVELELLRDDNEQLITQYEREKALRKHAEEKF
